The target of this assay is purified total human IgA (human) (UniProt P11912). In words: cell-based or functional assay.
Sequence of UniProt P11912 (P11912 whole entry): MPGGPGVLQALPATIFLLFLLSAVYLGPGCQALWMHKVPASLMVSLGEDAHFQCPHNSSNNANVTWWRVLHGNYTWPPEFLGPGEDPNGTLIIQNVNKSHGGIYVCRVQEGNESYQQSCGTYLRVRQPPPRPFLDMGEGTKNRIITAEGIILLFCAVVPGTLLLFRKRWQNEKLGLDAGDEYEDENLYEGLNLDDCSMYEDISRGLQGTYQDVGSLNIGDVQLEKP

B1: sCD89 glycoengineered polypeptide (receptor)
chain: QEGDFPMPFISAKSSPVIPLDGSVKIQCQAIREAYLTQLMIIKNSTYREIGRRLKFWNETDPEFVIDHMDANKAGRYQCQYRIGHYRFRYSDTLELVVTGLYGKPFLSADRGLVLMPGEQISLTCSSAHIPFDRFSLAKEGELSLPQHQSGEHPAQFSLGPVDLQVSGIYRCYGWYQRSPYLWSFPSNALELVVTGGGGANSTAPAPAPAHHHHHHHHHH
modifications: A2GalNAc2 N-glycans (82.8% A2GalNAc2) at three N-glycosylation sites: native N65 and N79 (numbering according to Uniprot P24071) and the site in the C-terminal glycotag; >95% all occupied
For B1, the percent of human IgA target remaining in rat serum (total free+bound human IgA by ELISA) 6 hours after subcutaneous administration of 2.0 mg was less than 5%.

Source of the values: patent US20260055191A1.
